Drawing on PMC5906670, “Structural basis of epilepsy-related ligand–receptor complex LGI1–ADAM22” (Nature Communications, 2018), this text covers percent of parent for 6 variants.

B1: LGI1 (wild type, pull-down with ADAM22/23 ECD-FLAG) [human] / ADAM22 ECD-FLAG [human] (parent complex)
chain 1: KKPAKPKCPAVCTCTKDNALCENARSIPRTVPPDVISLSFVRSGFTEISEGSFLFTPSLQLLLFTSNSFDVISDDAFIGLPHLEYLFIENNNIKSISRHTFRGLKSLIHLSLANNNLQTLPKDIFKGLDSLTNVDLRGNSFNCDCKLKWLVEWLGHTNATVEDIYCEGPPEYKKRKINSLSSKDFDCIITEFAKSQDLPYQSLSIDTFSYLNDEYVVIAQPFTGKCIFLEWDHVEKTFRNYDNITGTSTVVCKPIVIETQLYVIVAQLFGGSHIYKRDSFANKFIKIQDIEILKIRKPNDIETFKIENNWYFVVADSSKAGFTTIYKWNGNGFYSHQSLHAWYRDTDVEYLEIVRTPQTLRTPHLILSSSSQRPVIYQWNKATQLFTNQTDIPNMEDVYAVKHFSVKGDVYICLTRFIGDSKVMKWGGSSFQDIQRMPSRGSMVFQPLQINNYQYAILGSDYSFTQVYNWDAEKAKFVKFQELNVQAPRSFTHVSINKRNFLFASSFKGNTQIYKHVIVDLSA
chain 2: SKRQLRRYPRNVEEETKYIELMIVNDHLMFKKHRLSVVHTNTYAKSVVNMADLIYKDQLKTRIVLVAMETWATDNKFAISENPLITLREFMKYRRDFIKEKSDAVHLFSGSQFESSRSGAAYIGGICSLLKGGGVNEFGKTDLMAVTLAQSLAHNIGIISDKRKLASGECKCEDTWSGCIMGDTGYYLPKKFTQCNIEEYHDFLNSGGGACLFNKPSKLLDPPECGNGFIETGEECDCGTPAECVLEGAECCKKCTLTQDSQCSDGLCCKKCKFQPMGTVCREAVNDCDIRETCSGNSSQCAPNIHKMDGYSCDGVQGICFGGRCKTRDRQCKYIWGQKVTASDKYCYEKLNIEGTEKGNCGKDKDTWIQCNKRDVLCGYLLCTNIGNIPRLGELDGEITSTLVVQQGRTLNCSGGHVKLEEDVDLGYVEDGTPCGPQMMCLEHRCLPVASFNFSTCLSSKEGTICSGNGVCSNELKCVCNRHWIGSDCNTYFPHNDDAKTGITLSG

The variants in this assay derive from B1. The assay can be described thus: pull-down; anti-FLAG antibody agarose; proteins secreted from HEK293T cells; n = 4 independent experiments; read off a plot.
With chain 1 KKPAKPKCPAVCTCTKDNALCENARSIPRTVPPDVISLSFVRSGFTEISEGSFLFTPSLQLLLFTSNSFDVISDDAFIGLPHLEYLFIENNNIKSISRHTFRGLKSLIHLSLANNNLQTLPKDIFKGLDSLTNVDLRGNSFNCDCKLKWLVEWLGHTNATVEDIYCEGPPEYKKRKINSLSSKDFDCIITEFAKSQDLPYQSLSIDTFSYLNDEYVVIAQPFTGKCIFLEWDHVEKTFRNYDNITGTSTVVCKPIVIETQLYVIVAQLFGGSHIYKRDSFANKFIKIQDIEILKIRKPNDIETFKIENNWYFVVADSSKAGFTTIYKWNGNGFYSHQSLHAWYRDTDVEYLEIVRTPQTLRTPHLILSSSSQRPVIYQWNKATQLFTNQTDIPNMEDVYAVKHFSVKGDVYICLTRFIGDSKVMKWGGSSFQDIQRMPSRGSAVFQPLQINNYQYAILGSDYSFTQVYNWDAEKAKFVKFQELNVQAPRSFTHVSINKRNFLFASSFKGNTQIYKHVIVDLSA [chain 1 M443A], the percent of parent was ~9 % of WT.
Under chain 1 KKPAKPKCPAVCTCTKDNALCENARSIPRTVPPDVISLSFVRSGFTEISEGSFLFTPSLQLLLFTSNSFDVISDDAFIGLPHLEYLFIENNNIKSISRHTFRGLKSLIHLSLANNNLQTLPKDIFKGLDSLTNVDLRGNSFNCDCKLKWLVEWLGHTNATVEDIYCEGPPEYKKRKINSLSSKDFDCIITEFAKSQDLPYQSLSIDTFSYLNDEYVVIAQPFTGKCIFLEWDHVEKTFRNYDNITGTSTVVCKPIVIETQLYVIVAQLFGGSHIYKRDSFANKFIKIQDIEILKIRKPNDIETFKIENNWYFVVADSSKAGFTTIYKWNGNGFYSHQSLHAWYRDTDVEYLEIVRTPQTLRTPHLILSSSSQRPVIYQWNKATQLFTNQTDIPNMEDVAAVKHFSVKGDVYICLTRFIGDSKVMKWGGSSFQDIQRMPSRGSMVFQPLQINNYQYAILGSDYSFTQVYNWDAEKAKFVKFQELNVQAPRSFTHVSINKRNFLFASSFKGNTQIYKHVIVDLSA [chain 1 Y399A] stands ~4 % of WT; under chain 1 KKPAKPKCPAVCTCTKDNALCENARSIPRTVPPDVISLSFVRSGFTEISEGSFLFTPSLQLLLFTSNSFDVISDDAFIGLPHLEYLFIENNNIKSISRHTFRGLKSLIHLSLANNNLQTLPKDIFKGLDSLTNVDLRGNSFNCDCKLKWLVEWLGHTNATVEDIYCEGPPEYKKRKINSLSSKDFDCIITEFAKSQDLPYQSLSIDTFSYLNDEYVVIAQPATGKCIFLEWDHVEKTFRNYDNITGTSTVVCKPIVIETQLYVIVAQLFGGSHIYKRDSFANKFIKIQDIEILKIRKPNDIETFKIENNWYFVVADSSKAGFTTIYKWNGNGFYSHQSLHAWYRDTDVEYLEIVRTPQTLRTPHLILSSSSQRPVIYQWNKATQLFTNQTDIPNMEDVYAVKHFSVKGDVYICLTRFIGDSKVMKWGGSSFQDIQRMPSRGSMVFQPLQINNYQYAILGSDYSFTQVYNWDAEKAKFVKFQELNVQAPRSFTHVSINKRNFLFASSFKGNTQIYKHVIVDLSA [chain 1 F222A], ~37 % of WT.
chain 1 KKPAKPKCPAVCTCTKDNALCENARSIPRTVPPDVISLSFVRSGFTEISEGSFLFTPSLQLLLFTSNSFDVISDDAFIGLPHLEYLFIENNNIKSISRHTFRGLKSLIHLSLANNNLQTLPKDIFKGLDSLTNVDLRGNSFNCDCKLKWLVEWLGHTNATVEDIYCEGPPEYKKRKINSLSSKDFDCIITEFAKSQDLPYQSLSIDTFSYLNDEYVVIAQPFTGKCIFLEWDHVEKTFRNYDNITGTSTVVCKPIVIETQLYVIVAQLFGGSHIYKRDSFANKFIKIQDIEILKIRKPNDIETFKIENNWYFVVADSSKAGFTTIYKWNGNGFYSHQSLHAWYADTDVEYLEIVRTPQTLRTPHLILSSSSQRPVIYQWNKATQLFTNQTDIPNMEDVYAVKHFSVKGDVYICLTRFIGDSKVMKWGGSSFQDIQRMPSRGSMVFQPLQINNYQYAILGSDYSFTQVYNWDAEKAKFVKFQELNVQAPRSFTHVSINKRNFLFASSFKGNTQIYKHVIVDLSA [chain 1 R344A]: the percent of parent is ~33 % of WT.
On to chain 1 KKPAKPKCPAVCTCTKDNALCENARSIPRTVPPDVISLSFVRSGFTEISEGSFLFTPSLQLLLFTSNSFDVISDDAFIGLPHLEYLFIENNNIKSISRHTFRGLKSLIHLSLANNNLQTLPKDIFKGLDSLTNVDLRGNSFNCDCKLKWLVEWLGHTNATVEDIYCEGPPEYKKRKINSLSSKDFDCIITEFAKSQDLPYQSLSIDTFSYLNDEYVVIAQPFTGKCIFLEWDHVEKTFRNYDNITGTSTVVCKPIVIETQLYVIVAQLFGGSHIYKRDSFANKFIKIQDIEILKIAKPNDIETFKIENNWYFVVADSSKAGFTTIYKWNGNGFYSHQSLHAWYRDTDVEYLEIVRTPQTLRTPHLILSSSSQRPVIYQWNKATQLFTNQTDIPNMEDVYAVKHFSVKGDVYICLTRFIGDSKVMKWGGSSFQDIQRMPSRGSMVFQPLQINNYQYAILGSDYSFTQVYNWDAEKAKFVKFQELNVQAPRSFTHVSINKRNFLFASSFKGNTQIYKHVIVDLSA [chain 1 R296A], for which the percent of parent was ~85 % of WT.
Under chain 1 KKPAKPKCPAVCTCTKDNALCENARSIPRTVPPDVISLSFVRSGFTEISEGSFLFTPSLQLLLFTSNSFDVISDDAFIGLPHLEYLFIENNNIKSISRHTFRGLKSLIHLSLANNNLQTLPKDIFKGLDSLTNVDLRGNSFNCDCKLKWLVEWLGHTNATVEDIYCEGPPEYKKRKINSLSSKDFDCIITEFAKSQDLPYQSLSIDTFSYLNDEYVVIAQPFTGKCIFLEWDHVEKTFRNYDNITGTSTVVCKPIVIETQLYVIVAQLFGGSHIYKRDSFANKFIKIQDIEILKIAAPNDIETFKIENNWYFVVADSSKAGFTTIYKWNGNGFYSHQSLHAWYRDTDVEYLEIVRTPQTLRTPHLILSSSSQRPVIYQWNKATQLFTNQTDIPNMEDVYAVKHFSVKGDVYICLTRFIGDSKVMKWGGSSFQDIQRMPSRGSMVFQPLQINNYQYAILGSDYSFTQVYNWDAEKAKFVKFQELNVQAPRSFTHVSINKRNFLFASSFKGNTQIYKHVIVDLSA [chain 1 R296A, chain 1 K297A] stands ~15 % of WT.
